Measured values from patent EP1169642B1.

Target: purified human complement Factor H (human) (UniProt P08603)
Experiment: steady state fluorescence titration of purified human Factor H

Chain of purified human complement Factor H (human) (P08603 19-1231 limits assumed): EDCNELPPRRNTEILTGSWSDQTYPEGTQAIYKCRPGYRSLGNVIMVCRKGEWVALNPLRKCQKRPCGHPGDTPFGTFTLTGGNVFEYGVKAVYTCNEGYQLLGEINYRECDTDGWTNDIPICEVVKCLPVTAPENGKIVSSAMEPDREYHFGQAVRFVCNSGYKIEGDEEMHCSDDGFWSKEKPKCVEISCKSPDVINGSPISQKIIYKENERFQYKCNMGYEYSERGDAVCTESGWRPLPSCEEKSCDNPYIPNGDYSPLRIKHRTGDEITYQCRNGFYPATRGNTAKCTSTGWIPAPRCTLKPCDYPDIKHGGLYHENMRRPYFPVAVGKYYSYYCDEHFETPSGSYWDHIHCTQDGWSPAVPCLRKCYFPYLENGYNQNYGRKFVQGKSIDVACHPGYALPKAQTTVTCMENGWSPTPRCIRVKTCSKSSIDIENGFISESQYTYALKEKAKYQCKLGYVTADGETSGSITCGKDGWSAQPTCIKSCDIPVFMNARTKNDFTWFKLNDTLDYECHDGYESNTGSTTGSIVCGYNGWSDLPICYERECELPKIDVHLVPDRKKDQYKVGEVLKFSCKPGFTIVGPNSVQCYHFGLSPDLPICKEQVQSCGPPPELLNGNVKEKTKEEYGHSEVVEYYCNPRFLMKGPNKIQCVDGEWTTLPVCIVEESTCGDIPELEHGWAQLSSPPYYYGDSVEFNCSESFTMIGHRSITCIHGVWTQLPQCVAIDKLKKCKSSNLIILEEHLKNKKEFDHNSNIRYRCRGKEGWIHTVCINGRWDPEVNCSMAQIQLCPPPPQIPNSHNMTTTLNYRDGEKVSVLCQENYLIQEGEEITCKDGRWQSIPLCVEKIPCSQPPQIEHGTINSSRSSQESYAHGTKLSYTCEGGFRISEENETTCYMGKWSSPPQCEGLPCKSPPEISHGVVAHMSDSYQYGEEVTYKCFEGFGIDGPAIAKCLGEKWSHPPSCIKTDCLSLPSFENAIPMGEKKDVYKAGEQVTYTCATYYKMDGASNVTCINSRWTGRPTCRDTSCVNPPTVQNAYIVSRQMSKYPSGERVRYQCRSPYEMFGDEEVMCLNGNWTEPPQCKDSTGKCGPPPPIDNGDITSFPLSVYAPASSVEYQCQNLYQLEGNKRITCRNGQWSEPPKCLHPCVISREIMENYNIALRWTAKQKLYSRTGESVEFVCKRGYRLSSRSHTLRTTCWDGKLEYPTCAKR

stoichiometry (OPN:Factor H): 1 molar ratio
Substance: recombinant osteopontin (rOPN) (from UniProt P10451 17-314) (ligand)
